Source: the DeepSol protein solubility set

Assay: soluble on expression in E. coli; label from the status in PepcDB or PDB records

Row | Sequence | soluble on expression in E. coli
1 | MIEVISATALATVQDLGRHGSLGYGVGTSGAMDTLSLRLGNLLLGNAEDAAGIEIPLFPFEVRFVEDCTFAITGAACSAKLDGGRLPGNWAAQARKGQVLKLSYPTTGSRAYLCLAGGVDVPPVLGSRSTQLRGAFGGWQGRALQQGDVIPAGAANQQRAGDFGLESAVAGLPLMLDGLPAIRVLPAAEFDCFSVEAQDTFFAGEWKITTQSNRYGYRMEGTPLLAREALEIRSHGIVPGVIQVPHGGQPIVQMRDAQPSGGYPKFATVIEADLWRLGQAPIGSKVRFVQCSYEQAIEALDTNHAFIEDARRLLALRGLQGHRLEHHHHHH | not soluble
2 | MVDLSRRSMLTGSWRNASNGILPPWARETTYFLAHCLRCDACIQACEADILQRGAGGYPSVDFKRGECSFCYACAQACTESLFLPRHTRAWDLVFTLTENCLARQSVECHRCQDSCEPMAITFRPTLSGIYQPQLDSQACNGCGACVAICPVSAIKAENHHAH | not soluble
3 | MGHHHHHHDTDIPTTENLTFQGACRLVANCRDVRCRRLLRNVMPVAGSELPRRPLPPAAQERDAEPRPPHGELQYLGQIQHILRCGVRKDDRTGTGTLSVFGMQARYSLRDEFPLLTTKRVFWKGVLEELLWFIKGSTNAKELSSKGVKIWDANGSRDFLDSLGFSTREEGDLGPVYGFQWRHFGAEYRDMESDYSGQGVDQLQRVIDTIKTNPDDRRIIMCAWNPRDLPLMALPPCHALCQFYVVNSELSCQLYQRSGDMGLGVPFNIASYALLTYMIAHITGLKPGDFIHTLGDAHIYLNHIEPLKIQLQREPRPFPKLRILRKVEKIDDFKAEDFQIEGYNPHPTIKMEMAV | soluble
4 | MERIALFIDGANVYAAAKRLGWNFDHRKILEHFAGLGALYNAFYYTAVPWPVDDKQKRFVDALTYMGYTVRTRPLRENTDENGDTSRRASLDIELVTDLLTTESRYDVAVLLSGDGDFERPVEVLRARGKKVIVASIPEMTSAELRNAADEYVDLASIREQVERPGYRLPSEGSGR | not soluble
5 | MSLCGIAGWVSFERDLSTQRAVAETMTKTMALRGPDDEGLWLDRRAALGHRRLSIIDLEGGRQPMTADEDGRTLACLVYTGEVYNFRELRLELQGLGHAFRTRSDTEVVLRAYLQWGEAMLERLNGMYAFALWDAREQRLLLVRDRMGVKPLYYYPMPDGVLFGSEPKAILAHPEAERRVTAGGLREMLDLVKTPEAAAFAGMHEVRPGQVVTIDRGGLRKRRYWQLEAREHTDDLPTTIRTVRELLDDIVERQIIADVPLCTLLSGGLDSSVVTALAARSMRRQGKGTVRSFSVDFVKHGAAFEADYLRGSPDAPFVRDLAAHAGTEHREILLESRELADPRLRAAVLGAQDLPPAYWGDMLPSLYKLFEAIRAQSTVALSGESADEVFGGYRWFHDAAAVDGDAFPWLAGSSGAFFDGQSLIAPGLLRELDMPGFRRDSYAQALAEVPRLASDSTRERRMREISHMHLTRFVQALLDRKDRMSMAVGLEVRVPFCDHRLVEYVFNAPWSMKNFDGREKSLLRAAGKDVLPESIVRRVKSPYPATQDPAYEQALRQGLARVLDDSRSPALPLLDKAAAWKLLDRPFGKTSTSPERAGLEMALGLDEWLRHHQVSLDLEGHHHHHH | not soluble
6 | MSLTADPPACTVPAAGGSSTHKLVNGGADKLIFKIKSSNNNEYRIVPVFGFVDPSGSKDVVITRTAGAPKEDKLVVHFAPAPADATDAQAAFAAVTPAGTVTIPMSATA | not soluble
7 | MAHHHHHHMPGKRKRVQGDDNTESQASAVPQGDGQTRARPESHGDTNQPAATHIRVEEPRQPQWTLESRLEDVLLEGKERITNMRLNDFLRNYFDGRGVEEFNENVYMKYFLISPNEFIKDEVLLSTIKVSPPYQELKKEREEFYMLLEASNKLKKECIITLEQWSNFERKDTVTPLARAQINTAFSRVLREERWEAEERQRRERQEMGIDVSTRIKYAVLKGRVRVNKMKLNDFLTMELDGRGVGSANWNFLLRDFFICSTKYIYDVFLLLKIQASDRYNTMERAVRDEMDMEEDVNRLYKNGVDNLLKWLVAAAEVKANVHEVTKRFLDAAAEEAREPKKSSAPMKLEGCYESVYNASWHHFVEVPDGEGTVMEVREGEPPRSWTYKAVGDTLERNDGVEQSGAPRPRLMVLTSDKGWPYTWRRMDPLVAAM | not soluble
8 | MNNNENQTLISGGTVVTPTTEIEKGTVAFSNGKIVSVEAESHDNPDIDATGKYVLPGLVDLHGDDIERHLFPRAEERVDTTIALDRCDIANASAGVTTKYHAISFEDVPDDNRSIELARRLAEQIRNFNYETGARVDNRLHMRCELTNEASVDAVSEEIKSGGDLVSLVTHVPGTGQFTGENTLAQRYDRSDGELETGLQSLKTRRSGVPEAELLARAREVTELASNRNMTVASHDDETVASVDNAAAIGVDISEYPLSHRVAQRATELNLTVAMGAPNVVRGGSLWDGPDASQAIKDGVVDILCSDFRPQSLLSSVFIENDEPLKDRVFRVSTAPAAAAGLYDRGRLECGARADIIIVDPDPSPSIARTYVAGDQVYCSA | not soluble
9 | MPLQQTLGVDCQTAADAGGEPHCFAGPVRERRMDSVLVIGGGRFIGRHTVTEFRDAGYDVTMLTRGRRQNPFTNAEVAHIEGDRRERDTLETARERVNPDVVVDCVAYFPEDVRVATDVFADVGAYVYISSGAAYGAERTPKREGETPLAGCTAEQATTDSAETYGPRKAEGDREVFAAAEDGVQAMSVRPTVVYGPYDYTERFAYWVDRVAEYDRVVVPSDGLSLWQMAYVEDVASALRLVAERGTAGEAYNVGDEHAPTLREWVDLLARVHETDVETIGVGERELRAAGLAPDDFPIYRDSPHLLSTAKLRGLGWSSTPHETALAVTVAEHLENDRTGREFGPDRDTEAALIDRLTE | not soluble
10 | MQITSNTRLNELWELYFQTLDKSTSWTFTKESFYNRYLKEPLGKKKLDSIQEHHIMAIIRHLQAEGMATRTVNTTLEILRPLFDFAIKNKALRDNPTRFIVLKKDNLEHHHHHH | not soluble
11 | MSLSFDVVFVGHRRGEVRSDNAMLGLLCDAAFDELTRPDVVIFPGGIGTRTLIHDQTVLDWVREAHRHTLLTTSVCTGGLVLAAAGLLNGLTATTHWRVQDLFNSLGARYVPQRVVEHLPERVITAAGVSSGIDMGLRLVELLVSREAAEASQLMIEYDPQPPVDAGSLAKASPATHRLALEFYQHREGHHHHHH | not soluble
12 | QIVPLFFQDVTNQPIEGMKPRSALEVEGRDVFIANGCVGCHSQMIRPLRAETERYGHYSVAGESVWDHPFLWGSKRTGPDLARIGGRYSDEWHRVHLNNPRDLVPASIMPAYPFLAGKHIDSTQTAKKLQVLRTLGTPYSDADITGAAAAVQGKTEMDALVAYLQGLGTLIKSKR | not soluble
13 | MGSDKIHHHHHHMQFADFWYIVALSNQLQPNKVLPRTVLGEWLAIFRGEDGQPVALRDRCLHRNSRLSSGKICNGALQCPYHGWVYDGVGNVIAVPAEGNDFKPSPQRRAKCYATKEQDGYVYVRLADTPSVDFEPFSMPHYGQTGWETVRVINRFANNVTNCAENFIDIPHTAFVHPGVFRTSRQQKLEMTVERWNGSVLVEYRNENSNLGWYSRFLNLQSAEIKHSDRFYMPNITSVEYKMARNRHLFITSQSIPETDNSTLVYTDVTYNYGIWNKLARPFVRWTAQHIIRQDVEILGIQGEAIAKYGTQFYNTPADTIHIFVESIMAAISRGEDPRLLPNQSVKVTFWV | not soluble
14 | MGSDKIHHHHHHMTPEQFEVKANPALWERLGMNVERFSGMPKMLTEAFRGIYLSQKNRPARMEYFDGMIAELHSGRVEELVTAKDAGRPVVGTFCVYVPEEVIMAVGGICVGLCGGSQGSIPDAEKVLPRNICPMVKSAFGFKLGKICPYFQAVDLVYGETTCDAKKKTWELLDREVPTHVMEIPQMKRARDKALWLEEVKDFTSKMEEVSGRKATAEGIGAAIRVMNAKRLALQRLNDLRHHTPSPISGKDMLLIQQIAFYDDPARFTANVNELCDELDERIAAGVAVAPAATPRVMVSGTPMALPNWKLHHLIESAGAVVVNEESCIGTRYYKDLTDESTATVDEQLSLLTDRYMKIDCSCFTPNDDRIEQVLVEYRASGAQGLIDYCLQFCHTYNIEAVKLREMCEREGIPFLAIETDYSPEDVGQLQTRIEAFIEQIRG | not soluble
15 | SVICCAAVNCSNRQGKGEKRAVSFHRFPLKDSKRLIQWLKAVQRDNWTPTKYSFLCSEHFTKDSFSKRLEDQHRLLKPTAVPSIFHLTEKKRGAGGHGRTRRKDASKATGGVRGHSSAATGRGAAGWSPSSSGNPMAKPESRRLKQAALQGEATPRAAQEAASQEQAQQALERTPGDGLATMVAGSQGKAEASATDAGDESATSSIEGGVTDKSGISMDDFTPPGSGACKFIGSLHSYSFSSKHTRERPSVPREPIDRKRLKKDVEPSCSGSSLGPDKGLAQSPPSSSLTATPQKPSQSPSAPPADVTPKPATEAVQSEHSDASPMSINEVILSASGACKLIDSLHSYCFSSRQNKSQVCCLREQVEKKNGELKSLRQRVSRSDSQVRKLQEKLDELRRVSVPYPSSLLSPSREPPKMNPVVEPLSWMLGTWLSDPPGAGTYPTLQPFQYLEEVHISHVGQPMLNFSFNSFHPDTRKPMHRECGFIRLKPDTNKVAFVSAQNTGVVEVEEGEVNGQELCIASHSIARISFAKEPHVEQITRKFRLNSEGKLEQTVSMATTTQPMTQHLHVTYKKVTP | soluble
16 | MSLGSNKTIIINLNNLEHNLNLIKNKIGEKEIVATLKGDAYGHGLINIFKFLKSKNINYFGLSNIEDAKTLKKIDKNIKILMYIKVDKKEIKNLIKFELVPFVSDFEYLFLIEKECALQKNKIKVHLKIDIGMNRYGIKIDDALEIATYIQNSKFLELEGICSHLPSIENFKTTQKQIEQFLFFLETLKQKNIHPKFVHISNSGHIINYKLNPQFNMVRPGLILYGYCQSLKNKKPALNFKPVLSLFSKVIFIKNVKKGEKISYSGIFQAKEDMKIGIIPIGYFDGIPQNISNDFYFLINNKKCKIRGKVCMNLTIVEIPKDLKVKTGSKVEIVSEKLSIDEMSKFSKRSHYELLCNIGKYEKRKYLDEGHHHITTDPNSSSVDKLAAALEHHHHHH | soluble
17 | MGSDKIHHHHHHMWKSISQVLAEQFGAYYFIKHKEKLYSGEMNEIWLINDEVQTVFVKINERSYRSMFRAEADQLALLAKTNSINVPLVYGIGNSQGHSFLLLEALNKSKNKQSSFTIFAEKIAQLHQIQGPDKYGLDFDTWLGPIYQPNDWQTSWAKFFSENRIGWQLQICKEKGLIFGNIDLIVQIVADTLSKHNPKPSILHGNLWIENCIQVDDKIFVCNPACYWGDRECDIAFSSLFEPFPTNFYQRYNEIYPLEEGYLERKLIYQLYYLLNFSYRYYNKKQSYVSLTQKLINQILHKIDK | not soluble
18 | MKAVGFLLLLTILTLAYAKKSGDVTELQIGVKYKPQKCDLQAHKGDKIKVHYRGKLTDGTVFDSSFERGDPIEFELGTGQVIPGWDQGLLGACVGEKRKLKIPSKLGYGDNGSPPKIPGGATLIFDTELVAVNGEPSSEAKSKNEL | soluble
19 | MGSDKIHHHHHHMEFSQLRIFQAVAEEGSVTRAAERLHRVPSNLSTRLRQLEEQLGVELFLRERQRLQLSPAGKVLLDYANRMSALRDEALGAVRGGQPAGDFVLGTMYSTAATHLPALLARYHQSYPQVNLQVRAAPSGELLEGLLNHTLDAALVDGPPSLAGLDGVPLCDEQLVLITSPEHPAVLTAKDVAGKAVFTFRQGCSYRMRLEAWYAHAHTPMGRVMEIESYQSMLACVIAGAGVAMMAQSMLDSLPGRDRVRVHSLQAPFDQAVTWLMWRQGMRGANLQAWIDLQQSETINQSSECAATA | not soluble
